18 sequences from the DeepSol protein solubility set can be followed below.

The nature of this series: soluble on expression in E. coli; label from the status in PepcDB or PDB records.
As for “MGRKSQRKNATMFDSDDDTSSVSSSSTMPSERLLNPGMDEVTVLKDALLDQSLDALYEKREQALATIVDAFNSDLQYEFVEKKFATLLHQCLHCTKKGSTKETSLATHVIGLLALTVGLGDHAQEVLEESVTPLSQALKSGREILKITSILECLAVITFVGGNDPEQTEKSMQIIWQMIHPKLGSNVVATKPSPAVISAVVSSWAFLLTTVDRWTLGPKIFQETVTYLSTLLEKDDRSVRIAAGEALAVIYELGTLEKFAAEVKGSANGSVKEGGVSQEALMHMHGLKAKVTKQVRELSVEAGGKGSAKKDLNTQRNLFKDLVEFLEDGYAPETSTKVGGDYLQTSTWYQMIQLNYLKHFLGGGFIKHMQENEFLHDVFSFTPKKIGGGKLSNDEKRLFKSPNSALNKARTQFLAKQRMLAKNMNVGHYAATAMEEE”, the “soluble on expression in E. coli” value is listed as “soluble”. Then “MGRNKEFDTALVLHRAIEVFGEYGYEGTSLQDLLSHLGIARQSLYDTYGTKRDLFLSAVKSYLEGKNAAVMERLEAPGSVKEAIRDIFQEGVNALRDPERAKACYIINSAIEQIPHDPELARYFERQSKQLEDAFYHGLLRAKDQGELNGEDTDISALARYLNQSRLSLTFIAKVTADMDRLQDHVDVSLSVLD”, with “soluble”; and “MGRSQATAESYRDSLTIFKNYLVGELGKSISTFQFSDCTKECIYNFREYLLANGSQPSTVNVRVAAIRAYLNYASDMDISVQSVALAISQISPCLEHHHHHH”, with “not soluble”. In the case of “MGSDDQSAGDRIQKGFQINYMILRDADSGKIIWQENKDFSAPDQEHEARVPVKILDMRAVSREINFSTIESMENFRLDQKVLFKGRIMEEWFFEMGFVGANTTNTWQSTIEAAPESQMMPAKVLNGNVTIQTSFYDNETLITKSVVRLYYILEHHHHHH” it was “not soluble”. In the case of “MGSDKIHHHHHHAACSNDDEPGIDKGGQKGELIDAISIAFTSSSAPATRADKGEIEGVGTENNVYVAYLFAKENDPQHEGAKVGDWTVKRVAGDSNTDDKDVAAAIGEGDVATPGTKKNMCTFNGVRQGDSVYVVVNDPQMTLATAQTLAHQGDKSEAAIRAYISNLSKSYLNDLTVTKDGTQGKKYIMAGVSAIPTNPNIPNGSTVKVSIPLNRELAKVFFNASVTTNPVYEAYGKMAIKDAVWENPTGTKDPDGIVVVRIPRRVSPFTAQARDWYFPQSADATAKDWDVEGWLKAFAGESQSVPGTAEVPGTTLALNKGEYNADAKEYRLTWVVGEKALADGATPAAASMVYVKSDKLYSPYFYVTPNYADNAGCATVVVTQATYIGANTLLEPTITEQMLSEALDDSDFQTATSTDGSVKYDKLAADFWNTGANVAALVAFLEKNATYKLALRGETDPSKKEAAITIKPNDKRYYRADVANYSDDETTSMKITERNTFYHITGTITTLGAKSIEDAINSDNIDMLVQVVVKPWKYVVNNINM” it was “not soluble”; in that of “MGSDKIHHHHHHAATLLASCNKDEEETEIQGFKVLEYRPAPGQFINEGFDCQTMEEANAYAEERFNKKLYVSLGSFGGYITVKMPKEIKNRKGYDFGIIGNPFSGSSEPGIVWVSEDANGNGKADDVWYELKGSDEPERDYSVTYHRPDAAGDIPWEDNKGESGIIKYLPQYHDQMYYPNWIKEDSYTLKGSMLEARTEQEGGIWKNKDFGKGYADNWGSDMAKDDNGNYRYNQFDLDDAVDQNGNPVTLERIHFVKVQSAILKNVESIGEVSTEVVGFKAF”, “not soluble”. As for “MGSDKIHHHHHHACGNSDGAGEDPGVPYLAKKGEPVDGVRIGWDYGTIRQLATRGGYPRSIRLQDNTVVAVYENYDTGYEMRCSTDEGSTWGDPVILFPIHSITNDKGTARINIANSEIIQLANGDLLAACNYRPQTPEITPFAIAVRRSTDNGVTWSDPQIIYEAEPRFSDGCWEPSFLQLPNEEVQVYFANEGPYTHSNEQEISMMTSVDNGKTWGGYKTVCFRAGSRDGMPVSKVVGDEIVCVIEDCGFVTFKPYTVRTKLSDNWSSPVLADSPNRAMALGEPVEDWIYMGAPYLGVLPTGETLLSYQVDDIRHDDQLGDRLPYSTMEVAIGDKNARNFVRRTRPFPVPAGKHAVWPSVAVWDANTIAALATSNYQGGTEAPFFMKGHVMRDLEVNSSDIVNYPIFIGHTGICNLRLGVGKDADNLYITCKVKDGELYSGGQGTQKGSGVFIYLDTKNECLKEPAEGVYKVWCSYKGDITVWQGNKGKWENSELEGLQITPSVVSGGYELAFTIPLNRSFNKDAMRLCATLSTKTYTETLVHSNADRSCTWMKMNLGGH”, the “soluble on expression in E. coli” value is recorded as “not soluble”.

Take “MGSDKIHHHHHHACSWVDDDRSDCPTGCWLKLSYTYNMLNVDAVTTQVKDVTLFILDQEGNYIVREEVDSLTFHQNECTIQVPSLPQGDYTFLVWAGLADSLYRHTPTSLTLLRNEAGEQSEKLSSLFHGRLDNVHISGEYQVLALSLTKNTNILSCILQSQSAAPLDTDDFRLELTARNGCMDHRNTPTDSVSTCYLPFMQESANLEDIQVVHAGMNTLRLMENDDTRLRLIHQPDGKEIFDIPLTPYLLLSRNVETTYMPPQEYLDRQDRYNLIFFLSPTNDPQKPYICLQMQVNGWIIRINDAELDK”: the “soluble on expression in E. coli” value is “not soluble”. Then “MGSDKIHHHHHHACVATAFSQTIEKENKIDVQKKNSSAEVSGRQLPEAKNIEPKLPDIEAKKLATDDKSMQTYGLTPSSPASGLSPYSYDFPALLESNPTLTDFYNFRQHSMNGQLSFIGSAEQKTYLGLGQYVAVNAGIRWIPSQRFFVEAGGDLSRQFYLALPIARQDIAGIYTRMRYSLVRNVRLNVWGQYFMGGNTPPPAYNPLFPHTGVGASISVDVKKNTEVSVGAEYQYDKKSREWKMETSGRVSIGF”, with “not soluble”. Consider “MGSDKIHHHHHHADKFVAKCPNEIFIGAILEANSINQDTYKFLKISMNPINMGYTIPIKSQTITPSYNNMMKAIHEALKTNDVLKSNYSFSFVIKKIKSYQELAVNWGQNINLQQLLGITPDYKPQKNIILIDINQSFFSIIMDMPESLSTDPQVLQQLDKLAFINSIQFGRKVILVIESNIDYDKLQEAIDNLLKSKEVSQKELAILANSNIRLMTIGNKEIKDINPDNPFTSILTYLSSTVTPDDFGGPISFSASNIKDNSVFVNYFNVQ”, for which the “soluble on expression in E. coli” value is “not soluble”. In the case of “MGSDKIHHHHHHADPFASITHLVDSAMVNKTDSIDREKTSDEPKPIEADESFDDFIYNFASDDALQRQRVVFPLPYYNGERASKIDRKYWKHDDLFAKQSYYTLLFDREEDMDLVGDTSLTSVQVEWIFVKKRMVKKYYFERIKGAWMLEAINLRPIEENENEDFVEFFGHFATDSIFQSRRIRQPLVFVTTDPDDDFSILETTLDLNQWFAFKPALPADKLSNINYGQQNDDNASHKILALKGIGNGFSNILYFQRKDSGWELYKFEDTSI” it was “not soluble”. Then “MGSDKIHHHHHHAEISDKVIRIGVLNDQSGVYADIAGTGSVEAARMAAEEFGGEIDGAKIEFVSADHQNKADIAANVANQWIDTGGVDAIVDIPNSSAMLAVQEIGRTKKRIVIASGGGSTDFTGPKCSPYGFHWTYDTYSLAKGTAESLVKDGGTTWYNIVVDYAFGHSLDTDTSRFITQAGGQVVGRVLHPLGTSDFSSYLLQAQGSGAKVIGVLSAGADTVNAIKQAAEFGITQGGQILAGLLIFDQTVHSLGLETAQGLRLTTGFYWDRTDATRAWSAEFLKRSTKNIPSMAHAGVYSGVRHYLAAIKAAGTDNADAVAAKMRETPVNDMFAENGTVRADGRMVHDMYLMEVKKPADSTSEWDLMRLVHVIPGEEAYRPLAEGGCPLVQ”, with “not soluble”; and “MGSDKIHHHHHHAGLDAVEIGTGGNPGNHHCPTDELLASEAARKEYLEKFTSRGLTISAFSCHDNPISPNKEEAAASDEILRKSIKLASLMNVPVVNTFSGTAGDSDDAKAPNWPVIPWPTVYSDIKTWQWETKLIPYWKEIGELAAASGVKIGIELHGGFLCHTPYTILKLREETNDAIGVNLDPSHLWWQGIDPVGAIKILGKAGAIHHFHAKDTYLDQDNINMYGLTDMQPYGDVQTRSWTFRSVGCGHSLTEWSDIMSALRTYGYDYVVSIEHEDPLMSIDEGFDRAVTNLQSILIKDKPLDMWWA”, with “not soluble”.

For “MGSDKIHHHHHHAGVVVPKYTPSTENPGGPGEEPGDGLIDPAEPLDRGFMHLKGRELKSLNSISITGLNDGEKVILSTLAGLAARVTGDQVYINEGGPSSVWLKQMQNKYGIPVNTYNALAPLVQHYVETGVIKGYIVYTPYSEGQSHSINVATSLCGLLRGIAVPESLVDKVKAMGVTTELMDVRSYDEKWLYENYKDQLDKSLAADMKPEIFHHLRDYITMTNAFAFYDYNARRDWSWRTSILKDLDKGAYCFGYYDLDEWGMVNNASQLGVSMLPTDQAANLATLSSIYDTTGLKQRPATKEVVTEENVHYVTFLVSDGDNIAFNLWGQQGYMDHDLHGQFPLGYTISPSLYDLAPAALRWYYENSKEGDYFVAGPSGSSYIFPSKMSDADLDDYLAKLNEYVDKSGLNICNILDQKIMDNPKVYNKYLAQPNIDAIFYTGYGEKGDGRIKFSDNGKPVIEQRSVLWEGIDGGSNRGEESTVISQINSRSANPHSADGYTFVFVHCWTKNQQSIKTVIDGLNDNVRVVPVDQFVQLVKQNLGPK”, the “soluble on expression in E. coli” value is on record as “not soluble”. “MGSDKIHHHHHHAPQPTVAVARGKDYARTTRSALALLGGMKRFVKPGDVVVLKPNMGWDRTPAQAANTHPLVVRALAEEALAAGAKRVKVFDRTCNDERRCYVQSGISDALKGMKGVELKFIENERFRRVPIKGAVLPAWELYDEALSADVFINVPVAKHHGLSRLTLGLKNVMGVMGGNRGSIHRHLDDALADINSVLKSHLTVIDATRILTDHGPQGGSPADVKVMDTVIASTDIVAADAYATTLFGLKPEDIPVTVAAHKRGLGEMNLKRVRIVTA”: the “soluble on expression in E. coli” value was “not soluble”. On to “MGSDKIHHHHHHCSEELDSQPMESYPEGGEPLDVVCKEYGISDYEDIELLSYYKNNLEQANFSGLREEKLWLASFNVKDKSPIINWTDELPFNRNRKIYKGYGEYEDVTIQQITMLQTMYFNPKEFVASLSYYFGKDYGYLALLFRHDTQTKEVQVKRSEILAGFQYSIINNDCCYSLSGDTLYIAEKGFGYSNVGTLYTSEFISHEEAIYTHRDNKGFFVGRRNFKLGEDLWHIQVPQLNDEPADAKIEVSVEDNSKRVWKYNVNIIHYDGTKKNVTFEVDIDNGTIKGENDYTSLIIGKWKKTSGDAVATHVTYKNDGTFEYTSTEDSSYKEVGKYKIDGNKLYEMYSDEEEWIINDILLLNSMTLSVQELEADGVTPTGQKYSYQRVE”, for which the “soluble on expression in E. coli” value is on record as “not soluble”. In the case of “MGSDKIHHHHHHCVRVPTLMIVPEAAQSGVAETVFVASNRVFANGQFQSARQDDVTYTRFTVQIPQDRDAGAVRPGRARRTGPNLRTDFVASDGVHLGGEGRFQSELLAEARRRGTSEVMVFIHGFASSIGTGIYRTAQIRYDFEVPGVAVHYAWPSSGSYIGYAYDRDSALFARDGLEELITGIMQTDLDVVLVAHSLGSSVVMEVLRQLRIAGRNALIDRIHGVILFSPDLDVDVFRSQASRIGDLPQPFVIFTSQRDQALTFSSIMAGRTARVGNLATADQVAEFDVTLIDVSAFEGGVRDRLNHFAGATSQSAVQILRDAAQINSAFEDGPDARPGLLPGTILTIQNATLVLLDPEHAR” it was “not soluble”. For the sequence “MGSDKIHHHHHHDDDNTANPAEEVVKASKKHDTAILLCTFGSTFKESIKTYDATLADFQNAFPDADIYLSFTSRTCVNRVEAETGIARYQPDLWLQALGNAGYKKVAVQSLHIIPGEEYLSLMNTDVKKKFMIESFPSVQVVKSPCLVYNEEDVEAVAKVLYSHYSDKLADNKNILLLMGHGNPDKNYNANTKYTETEEAMQALAANKNVFVGTVDYGDMLFWPEEGEPNEECVYSKLTKYCEDHNLKPEEITISLAPFMSIAGDHAHNDLWGIEEGDDFSAAAPNADACWRLKLLKMGFKIDTKESHNGSLENCKIIGLGDYDAVRQIWVNHLKALYNDAEAWETGEDYQ”, the “soluble on expression in E. coli” value is on record as “not soluble”.
